Results from publication PMC4048220, “Exploring the Electron Transfer Pathway in the Oxidation of Avermectin by CYP107Z13 in Streptomyces ahygroscopicus ZB01” (PLoS ONE, 2014).

Legend:
[1] = substrate: NC(=O)C1=CN([C@@H]2O[C@H](COP(=O)(O)OP(=O)(O)OC[C@H]3O[C@@H](n4cnc5c(N)ncnc54)[C@H](O)[C@@H]3O)[C@@H](O)[C@H]2O)C=CC1; test: spectrophotometric DCPIP reduction; format: biochemical, Streptomyces ahygroscopicus; conditions: DCPIP as electron acceptor
[2] = substrate: NC(=O)C1=CN([C@@H]2O[C@H](COP(=O)(O)OP(=O)(O)OC[C@H]3O[C@@H](n4cnc5c(N)ncnc54)[C@H](O)[C@@H]3O)[C@@H](O)[C@H]2O)C=CC1; test: spectrophotometric DCPIP reduction; format: biochemical, Streptomyces hygroscopicus; conditions: DCPIP as electron acceptor

B1: FdR28 (Streptomyces ahygroscopicus; V1M) (protein)
chain: MVVGASLAGLRAAEALRGEGFTGSLTMIGDELGEPYDRPPLSKQVLTGWVPADNTKLPRRRDVDAEWLLGVPASGLDLANNHVRLADGRQVPFDRVPISTGVRARPWFVESEAALDGVFVVRTREHAEALQRALAAGPSRVLVIGAGFTGSEIASVCRERDIPVTVAELAPAPLVGALGAMIGDVAADVQRAHGVDLRCGVKVTQLEGDAQGRLRRAHFDDGTTVDADVAVVALGGIRNTDWLRDSGLAAGVWGIACDTGCRALDLNGLVTDDVFVAGDVARCPNPIYEYRLISLEHWANAVEQAEVAAHNMVSGQADRWPHLTLPLFWSIQFGINIKSVGVPTFADEVVVTQGSVPDHRFVAAYGYRGRVTAAVSFNNAKWLDHHRRLIETAAPFPPLCPTPDQPADTKPVPVDFPGPALLAQGATVVVTGHDPSERRVTAAYQHR
notes: FAD flavoprotein; pRSET-b (vector His tag), E. coli BL21(DE3), Ni-Sepharose purified; GTG start changed to ATG; cloning primers encode N-terminal MVVGAS, C-terminal TAAYQHR
Km [1]: 25.4 µM
kcat [1]: 6.43 s⁻¹

B2: FdR18 (Streptomyces hygroscopicus) (protein)
chain: MVDAHQTFVIVGGGLAGAKAAETLRAEGFTGRVILICDERDHPYERPPLSKGYLLGKEERDSVFVHEPAFYAQARIELHLGQPAVHLDPAARTVRLGDGTLIAYDKLLLATGAEPRRLDVPGTGLAGVHHLRRLAHAERLRGVLASLGRENGHLVIAGAGWIGLEVAAAARSYGAEVTIIEPEPTPLHGILGPELGALFTDLHAEHGVRFHFGARLTEIVGQDGMVVSVRTDDGEEHPAHDVLAAIGAAPRTALAEQAGLDVVDRADGGGIAVDAALRTSDPFIHAAGDVAAADHPLLDTRLRVEHWANALNGGPAAARAMLGQDISYDRVPYFFSDQYDLGMEYSGYAPPGSYDQVVCRGDVGKREFIAFWLREGRVLAGMNVNVWDVAGDVQQLIRSGTPLDPEKLTDPTVPLTSLLP
notes: FAD flavoprotein; pRSET-b (vector His tag), E. coli BL21(DE3), Ni-Sepharose purified; GTG start changed to ATG; cloning primers encode N-terminal MVDAHQT, C-terminal LTSLLP
Km [2]: 64 µM
kcat [2]: 2.02 s⁻¹
